Source: FireProtDB (doi:10.1021/bi980431i)
Values joined by “and” are separate entries in the source; they are usually repeats but may differ in a detail not shown here. Identical values can stand only once.

B1: Lysozyme C, P61626 (parent)
chain: MKALIVLGLVLLSVTVQGKVFERCELARTLKRLGMDGYRGISLANWMCLAKWESGYNTRATNYNAGDRSTDYGIFQINSRYWCNDGKTPGAVNACHLSCSALLQDNIADAVACAKRVVRDPQGIRAWVAWRNRCQNRDVRQYVQGCGV

Variants of: B1
Settings: Homo sapiens; pH 2.69; Thermal; DSC; glycine 0.05 M; reversible: yes; structure 1LZ1; whole UniProt chain shown

Variant	Tm [°C]	heat capacity change of unfolding [kcal/mol/K]	unfolding enthalpy (calorimetric) [kcal/mol]	unfolding enthalpy (van 't Hoff) [kcal/mol]
Y72F	61.7	0.89	105	112

Same assay, conditions: Homo sapiens; pH 2.7; 64.9 °C; Thermal; DSC; glycine 0.05 M; reversible: yes; structure 1LZ1; whole UniProt chain shown

Variant	ddG of mutation (higher = less stable) [kcal/mol]	heat capacity change of unfolding [kcal/mol/K]
Y72F	0.96	1.67
Y81F	0.24	1.53
Y63F	-0.07	1.1
Y38F	0.5	1.35
Y142F	0.36	1.46
Y56F	0.19	1.29

Same assay, conditions: Homo sapiens; pH 2.7; Thermal; DSC; glycine 0.05 M; reversible: yes; structure 1LZ1; whole UniProt chain shown

Variant	Tm	change of melting temperature, mutant - wild type (higher = more stable) [°C]	heat capacity change of unfolding	unfolding enthalpy (calorimetric)	unfolding enthalpy (van 't Hoff)
Y72F	61.9 °C	-3	1.67 kcal/mol/K	110 kcal/mol	117 kcal/mol
Y81F	64.2 °C	-0.7	1.53 kcal/mol/K	111 kcal/mol	117 kcal/mol
Y63F	65.1 °C	0.2	1.1 kcal/mol/K	112 kcal/mol	118 kcal/mol
Y38F	63.4 °C	-1.5	1.35 kcal/mol/K	112 kcal/mol	120 kcal/mol
Y142F	63.8 °C and 64 °C	-1.1	1.46 kcal/mol/K and 1.53 kcal/mol/K	114 kcal/mol and 113 kcal/mol	119 kcal/mol and 118 kcal/mol
Y56F	64.3 °C	-0.6	1.29 kcal/mol/K	114 kcal/mol	117 kcal/mol

Same assay, conditions: Homo sapiens; pH 2.82; Thermal; DSC; glycine 0.05 M; reversible: yes; structure 1LZ1; whole UniProt chain shown

Variant	Tm [°C]	heat capacity change of unfolding [kcal/mol/K]	unfolding enthalpy (calorimetric) [kcal/mol]	unfolding enthalpy (van 't Hoff) [kcal/mol]
Y72F	64	1.91	108	114

Same assay, conditions: Homo sapiens; pH 2.99; Thermal; DSC; glycine 0.05 M; reversible: yes; structure 1LZ1; whole UniProt chain shown

Variant	Tm [°C]	heat capacity change of unfolding [kcal/mol/K]	unfolding enthalpy (calorimetric) [kcal/mol]	unfolding enthalpy (van 't Hoff) [kcal/mol]
Y72F	67	1.34	114	120

Same assay, conditions: Homo sapiens; pH 3.13; Thermal; DSC; glycine 0.05 M; reversible: yes; structure 1LZ1; whole UniProt chain shown

Variant	Tm [°C]	heat capacity change of unfolding [kcal/mol/K]	unfolding enthalpy (calorimetric) [kcal/mol]	unfolding enthalpy (van 't Hoff) [kcal/mol]
Y72F	69.1	1.12	117	124
Y63F	72.5	1.63	121	127

Same assay, conditions: Homo sapiens; pH 2.58; Thermal; DSC; glycine 0.05 M; reversible: yes; structure 1LZ1; whole UniProt chain shown

Variant	Tm [°C]	heat capacity change of unfolding [kcal/mol/K]	unfolding enthalpy (calorimetric) [kcal/mol]	unfolding enthalpy (van 't Hoff) [kcal/mol]
Y81F	61.9	1.53	106	112
Y38F	61.1	1.67	106	114

Same assay, conditions: Homo sapiens; pH 3; Thermal; DSC; glycine 0.05 M; reversible: yes; structure 1LZ1; whole UniProt chain shown

Variant	Tm [°C]	heat capacity change of unfolding [kcal/mol/K]	unfolding enthalpy (calorimetric) [kcal/mol]	unfolding enthalpy (van 't Hoff) [kcal/mol]
Y81F	69.5	0.6	117	122

Same assay, conditions: Homo sapiens; pH 3.17; Thermal; DSC; glycine 0.05 M; reversible: yes; structure 1LZ1; whole UniProt chain shown

Variant	Tm [°C]	heat capacity change of unfolding [kcal/mol/K]	unfolding enthalpy (calorimetric) [kcal/mol]	unfolding enthalpy (van 't Hoff) [kcal/mol]
Y81F	72.7	0.67	123	129

Same assay, conditions: Homo sapiens; pH 2.48; Thermal; DSC; glycine 0.05 M; reversible: yes; structure 1LZ1; whole UniProt chain shown

Variant	Tm [°C]	heat capacity change of unfolding [kcal/mol/K]	unfolding enthalpy (calorimetric) [kcal/mol]	unfolding enthalpy (van 't Hoff) [kcal/mol]
Y63F	61.4	0.89	109	115

Same assay, conditions: Homo sapiens; pH 2.67; Thermal; DSC; glycine 0.05 M; reversible: yes; structure 1LZ1; whole UniProt chain shown

Variant	Tm [°C]	heat capacity change of unfolding [kcal/mol/K]	unfolding enthalpy (calorimetric) [kcal/mol]	unfolding enthalpy (van 't Hoff) [kcal/mol]
Y63F	64.6	1.34	112	117

Same assay, conditions: Homo sapiens; pH 2.71; Thermal; DSC; glycine 0.05 M; reversible: yes; structure 1LZ1; whole UniProt chain shown

Variant	Tm [°C]	heat capacity change of unfolding [kcal/mol/K]	unfolding enthalpy (calorimetric) [kcal/mol]	unfolding enthalpy (van 't Hoff) [kcal/mol]
Y63F	64.9	1.15	111	117
Y56F	64.6	1.03	113	117

Same assay, conditions: Homo sapiens; pH 2.89; Thermal; DSC; glycine 0.05 M; reversible: yes; structure 1LZ1; whole UniProt chain shown

Variant	Tm [°C]	heat capacity change of unfolding [kcal/mol/K]	unfolding enthalpy (calorimetric) [kcal/mol]	unfolding enthalpy (van 't Hoff) [kcal/mol]
Y63F	68.7	0.65	116	122
Y38F	66.8	1.7	115	123

Same assay, conditions: Homo sapiens; pH 3.18; Thermal; DSC; glycine 0.05 M; reversible: yes; structure 1LZ1; whole UniProt chain shown

Variant	Tm [°C]	heat capacity change of unfolding [kcal/mol/K]	unfolding enthalpy (calorimetric) [kcal/mol]	unfolding enthalpy (van 't Hoff) [kcal/mol]
Y38F	72	0.6	122	129

Same assay, conditions: Homo sapiens; pH 2.53; Thermal; DSC; glycine 0.05 M; reversible: yes; structure 1LZ1; whole UniProt chain shown

Variant	Tm [°C]	heat capacity change of unfolding [kcal/mol/K]	unfolding enthalpy (calorimetric) [kcal/mol]	unfolding enthalpy (van 't Hoff) [kcal/mol]
Y142F	60.8	1.48	108	112

Same assay, conditions: Homo sapiens; pH 2.68; Thermal; DSC; glycine 0.05 M; reversible: yes; structure 1LZ1; whole UniProt chain shown

Variant	Tm [°C]	heat capacity change of unfolding [kcal/mol/K]	unfolding enthalpy (calorimetric) [kcal/mol]	unfolding enthalpy (van 't Hoff) [kcal/mol]
Y142F	63.4	1.08	112	116

Same assay, conditions: Homo sapiens; pH 3.06; Thermal; DSC; glycine 0.05 M; reversible: yes; structure 1LZ1; whole UniProt chain shown

Variant	Tm [°C]	heat capacity change of unfolding [kcal/mol/K]	unfolding enthalpy (calorimetric) [kcal/mol]	unfolding enthalpy (van 't Hoff) [kcal/mol]
Y142F	69.7	1.82	121	125

Same assay, conditions: Homo sapiens; pH 2.92; Thermal; DSC; glycine 0.05 M; reversible: yes; structure 1LZ1; whole UniProt chain shown

Variant	Tm [°C]	heat capacity change of unfolding [kcal/mol/K]	unfolding enthalpy (calorimetric) [kcal/mol]	unfolding enthalpy (van 't Hoff) [kcal/mol]
Y56F	67.2	1.46	117	121

Same assay, conditions: Homo sapiens; pH 3.1; Thermal; DSC; glycine 0.05 M; reversible: yes; structure 1LZ1; whole UniProt chain shown

Variant	Tm [°C]	heat capacity change of unfolding [kcal/mol/K]	unfolding enthalpy (calorimetric) [kcal/mol]	unfolding enthalpy (van 't Hoff) [kcal/mol]
Y56F	70.3	0.96	121	124

Same assay, conditions: Homo sapiens; pH 3.25; Thermal; DSC; glycine 0.05 M; reversible: Yes; structure 1LZ1; whole UniProt chain shown

Variant	Tm [°C]	heat capacity change of unfolding [kcal/mol/K]	unfolding enthalpy (calorimetric) [kcal/mol]	unfolding enthalpy (van 't Hoff) [kcal/mol]
Y56F	72.4	1.12	123	126
